Results on two substances are retold here after patent US20150010920.

Data set [1] concerns EGFP-cas3-1 (also called EGFP-EF172cas).
Data set [2] concerns EGFP-T/C1 (EGFP-E-III-F-172).
The test system of data set [3] is EGFP-Thr1 (EGFP-E-III-F-N188R).
The subject of data set [4] is EGFP-Thr1e (EGFP-E-III-F-FNPRGF).
Data set [5] relates to EGFP-Thr1f (EGFP-E-III-F-FNPRSF).

For the substance active caspase-3, the “cleavage; 50 mM HEPES buffer with 10% sucrose” value in data set [1] was “the cleavage effect was very weak and the cleavage reaction slow”.
For the substance thrombin, the “optical change / cleavage (absorbance at 397 nm, SDS-PAGE, MALDI-MS)” value in data set [2] is “this sensor was not cleaved by thrombin and protease type X”. In data set [3], the Km (µM); 50 mM Tris, 150 mM NaCl, 2.5 mM CaCl2, pH 8.0 was determined as 20.9 µM; the kcat (s^-1); 50 mM Tris, 150 mM NaCl, 2.5 mM CaCl2, pH 8.0 came out at 0.057 s⁻¹; the kcat/Km (M^-1 s^-1); 50 mM Tris, 150 mM NaCl, 2.5 mM CaCl2, pH 8.0 came out at 2770 M⁻¹ s⁻¹. For the same substance, in data set [4], the Km (µM); 50 mM Tris, 150 mM NaCl, 2.5 mM CaCl2, pH 8.0 turned out to be 2.81 µM; the “fold change in Km compared to the thrombin sensor with cleavage linker (Gly-Arg-Gly)” value is “Km has great decrease with 10 folds”; the “fold change in kcat compared to the thrombin sensor with cleavage linker (Gly-Arg-Gly)” value was “kcat, has significant increase with 5 folds”; the “fold change in kcat/Km compared to the thrombin sensor with cleavage linker (Gly-Arg-Gly)” value is “substrate specificity (kcat/Km) of these four thrombin sensor variants is resulted in 50-fold increase”. For the same substance, in data set [4], the kcat (s^-1); 50 mM Tris, 150 mM NaCl, 2.5 mM CaCl2, pH 8.0 stood at 0.29 s⁻¹ and the kcat/Km (M^-1 s^-1); 50 mM Tris, 150 mM NaCl, 2.5 mM CaCl2, pH 8.0 was determined as 105000 M⁻¹ s⁻¹. In data set [5], the Km (µM); 50 mM Tris, 150 mM NaCl, 2.5 mM CaCl2, pH 8.0 stood at 2.86 µM; the “fold change in Km compared to the thrombin sensor with cleavage linker (Gly-Arg-Gly)” value is listed as “Km has great decrease with 10 folds”; the “fold change in kcat compared to the thrombin sensor with cleavage linker (Gly-Arg-Gly)” value is given as “kcat, has significant increase with 5 folds”; the “fold change in kcat/Km compared to the thrombin sensor with cleavage linker (Gly-Arg-Gly)” value is on record as “substrate specificity (kcat/Km) of these four thrombin sensor variants is resulted in 50-fold increase”. Further, in data set [5], the kcat (s^-1); 50 mM Tris, 150 mM NaCl, 2.5 mM CaCl2, pH 8.0 worked out at 0.23 s⁻¹ and the kcat/Km (M^-1 s^-1); 50 mM Tris, 150 mM NaCl, 2.5 mM CaCl2, pH 8.0 was found to be 80200 M⁻¹ s⁻¹.
